From the Human Domainome abundance scans (Beltran et al. 2025)
± gives the uncertainty stated by the source.

B1: Nucleosome-remodeling factor subunit BPTF, residues 2862 to 2918; numbered along this chain, Q12830 (parent)
chain: TKKDTKLYCICKTPYDESKFYIGCDRCQNWYHGRCVGILQSEAELIDEYVCPQCQST
B2: Segment polarity protein dishevelled homolog DVL-3, residues 2 to 81; numbered along this chain, Q92997 (parent)
chain: GETKIIYHLDGQETPYLVKLPLPAERVTLADFKGVLQRPSYKFFFKSMDDDFGVVKEEISDDNAKLPCFNGRVVSWLVSA

Variants of: B1
Test: abundance fitness (aPCA) (normalised: wild type 0, dead -1); higher = more abundant; growth selection in yeast, the domain comes from the species named
Conditions: Homo sapiens

| Variant | abundance fitness |
| --- | --- |
| P52S | 0.054 ± 0.082 |
| P52T | -0.071 ± 0.079 |
| P52V | -0.017 ± 0.08 |
| P52W | -0.345 ± 0.13 |
| P52Y | -0.327 ± 0.14 |
| Q53A | -0.052 ± 0.079 |
| Q53C | -0.16 ± 0.13 |
| Q53D | 0.037 ± 0.11 |
| Q53E | -0.009 ± 0.092 |
| Q53G | 0.028 ± 0.092 |
| Q53H | -0.017 ± 0.14 |
| Q53I | 0.09 ± 0.13 |
| Q53K | -0.122 ± 0.11 |
| Q53L | -0.047 ± 0.084 |
| Q53M | -0.139 ± 0.11 |
| Q53N | 0.078 ± 0.11 |
| Q53P | -0.054 ± 0.093 |
| Q53R | -0.078 ± 0.08 |
| Q53S | -0.092 ± 0.089 |
| Q53T | 0.054 ± 0.091 |
| Q53W | -0.25 ± 0.14 |
| Q53Y | -0.266 ± 0.13 |
| C54A | -0.851 ± 0.12 |
| C54D | -0.819 ± 0.17 |
| C54E | -0.776 ± 0.16 |
| C54F | -1.06 ± 0.14 |

| Variant | abundance fitness |
| --- | --- |
| C54G | -0.755 ± 0.14 |
| C54H | -0.512 ± 0.13 |
| C54I | -1.06 ± 0.15 |
| C54K | -0.613 ± 0.1 |
| C54M | -0.648 ± 0.11 |
| C54N | -0.802 ± 0.16 |
| C54P | -0.64 ± 0.12 |
| C54R | -0.875 ± 0.1 |
| C54S | -0.889 ± 0.085 |
| C54T | -1.01 ± 0.12 |
| C54V | -0.934 ± 0.1 |
| C54W | -0.802 ± 0.12 |
| C54Y | -0.983 ± 0.13 |
| Q55A | -0.025 ± 0.084 |
| Q55C | -0.072 ± 0.09 |
| Q55D | 0.174 ± 0.1 |
| Q55E | 0.01 ± 0.094 |
| Q55F | -0.375 ± 0.13 |
| Q55G | -0.187 ± 0.075 |
| Q55H | -0.167 ± 0.12 |
| Q55I | -0.141 ± 0.12 |
| Q55K | 0.021 ± 0.11 |
| Q55L | -0.157 ± 0.078 |
| Q55M | -0.188 ± 0.095 |
| Q55N | -0.09 ± 0.12 |
| Q55P | -0.101 ± 0.094 |

| Variant | abundance fitness |
| --- | --- |
| Q55R | -0.142 ± 0.068 |
| Q55T | -0.196 ± 0.076 |
| Q55V | -0.18 ± 0.08 |
| Q55W | -0.245 ± 0.099 |
| Q55Y | -0.474 ± 0.13 |
| S56F | -0.063 ± 0.22 |
| S56G | -0.195 ± 0.27 |
| S56K | -0.03 ± 0.39 |
| S56N | 0.269 ± 0.4 |
| S56R | 0.074 ± 0.35 |
| S56W | -0.554 ± 0.47 |
| S56Y | -0.191 ± 0.45 |
| T57A | 0.024 ± 0.091 |
| T57C | -0.003 ± 0.24 |
| T57E | -0.022 ± 0.21 |
| T57G | -0.16 ± 0.18 |
| T57H | -0.172 ± 0.32 |
| T57I | -0.115 ± 0.1 |
| T57L | -0.569 ± 0.28 |
| T57M | -0.509 ± 0.36 |
| T57P | -0.044 ± 0.16 |
| T57Q | -0.469 ± 0.43 |
| T57R | -0.106 ± 0.17 |
| T57S | 0.068 ± 0.11 |
| T57V | -0.052 ± 0.14 |
| T57Y | -0.33 ± 0.28 |

Variants of: B2
Test: as above
Conditions: Homo sapiens

| Variant | abundance fitness |
| --- | --- |
| K42N | -0.421 ± 0.12 |
| Q37N | 0.122 ± 0.089 |
| E2A | -0.511 ± 0.077 |
| K46M | -0.081 ± 0.071 |
| R26K | 0.039 ± 0.066 |
| L36Q | -0.668 ± 0.22 |
| G1R | -0.179 ± 0.068 |
| H8Y | 0.19 ± 0.072 |
| T14W | -0.529 ± 0.11 |
| V73K | -1.01 ± 0.3 |
| L29Y | -0.321 ± 0.16 |
| T28E | -0.985 ± 0.14 |
| E13A | -0.183 ± 0.068 |
| D51F | -0.198 ± 0.11 |
| D10P | 0.002 ± 0.064 |
| V74L | -0.427 ± 0.088 |
| L36N | -0.522 ± 0.26 |
| L66E | -0.493 ± 0.085 |
| A30I | -0.82 ± 0.21 |
| L22N | -0.923 ± 0.24 |
| S60A | -0.152 ± 0.051 |
| D49M | -0.402 ± 0.14 |
| N63I | -0.766 ± 0.24 |

| Variant | abundance fitness |
| --- | --- |
| D10T | -0.471 ± 0.088 |
| Y16M | 0.096 ± 0.062 |
| Y41L | -0.624 ± 0.077 |
| A64M | -0.316 ± 0.08 |
| P21F | -0.588 ± 0.18 |
| D10C | -0.709 ± 0.16 |
| L29H | -0.433 ± 0.14 |
| P39Q | 0.11 ± 0.076 |
| G34C | -0.213 ± 0.078 |
| Q12C | 0.126 ± 0.064 |
| Y7P | -0.806 ± 0.15 |
| F32E | -0.649 ± 0.11 |
| F43V | -0.658 ± 0.091 |
| G71C | -0.957 ± 0.16 |
| K56S | -0.52 ± 0.071 |
| I6N | -0.451 ± 0.13 |
| P15I | -0.863 ± 0.22 |
| K56D | -0.738 ± 0.21 |
| M48W | 0.017 ± 0.059 |
| H8Q | -0.747 ± 0.15 |
| F43G | -0.753 ± 0.073 |
| D31S | -0.577 ± 0.11 |
| L29W | -0.783 ± 0.12 |

| Variant | abundance fitness |
| --- | --- |
| I6A | -0.578 ± 0.078 |
| K19M | 0.058 ± 0.066 |
| I5S | -0.765 ± 0.099 |
| R26W | -0.78 ± 0.11 |
| R72P | -1.04 ± 0.24 |
| V27H | -0.664 ± 0.19 |
| P15D | -0.464 ± 0.11 |
| D31M | -0.047 ± 0.091 |
| F32M | -0.624 ± 0.14 |
| D49V | -0.364 ± 0.069 |
| G1L | -0.132 ± 0.11 |
| A30C | -0.696 ± 0.15 |
| E57C | -0.09 ± 0.086 |
| L17M | 0.428 ± 0.061 |
| P67I | -1.04 ± 0.28 |
| Q12D | 0.386 ± 0.069 |
| P39M | 0.006 ± 0.073 |
| T14E | 0.215 ± 0.059 |
| D49H | 0.136 ± 0.08 |
| F69M | -0.201 ± 0.11 |
| T14F | -0.092 ± 0.085 |
| E25V | -0.807 ± 0.12 |
| S40D | 0.282 ± 0.065 |

| Variant | abundance fitness |
| --- | --- |
| L9N | -0.888 ± 0.23 |
| K42L | -0.86 ± 0.11 |
| D10G | -0.709 ± 0.077 |
| E25R | -0.59 ± 0.072 |
| P21W | -0.712 ± 0.11 |
| G71L | -0.538 ± 0.1 |
| S79A | -0.206 ± 0.062 |
| S75H | -0.6 ± 0.15 |
| V54H | 0.002 ± 0.12 |
| K42H | -0.043 ± 0.14 |
| D50M | -0.329 ± 0.1 |
| Y41A | -0.431 ± 0.064 |
| F52E | 0.335 ± 0.071 |
| K56C | 0.103 ± 0.068 |
| G11Q | -0.322 ± 0.099 |
| S40K | -0.091 ± 0.076 |
| D62I | -0.744 ± 0.28 |
| P39V | -0.106 ± 0.057 |
| Y7K | -0.749 ± 0.14 |
| A24P | 0.17 ± 0.062 |
